Assay results published in US6558922B1, “Methods and compositions for production of floral scent compounds” (Purdue Research Foundation, priority 1999, dated 2003).
Read-outs that look alike come from different tables or passages of the source.

Key:
BAMT [1] = target: T1, BAMT (Antirrhinum majus, UniProt Q9FYZ9); assay: BAMT enzyme assay, substrate specificity of plant-purified BAMT (fraction after MonoQ); assay type: biochemical; conditions: plant BAMT purified through MonoQ, compound tested as substrate instead of benzoic acid
T1 construct: The enzyme activity was purified from upper and lower petal lobes of 5- to 10-day-old snapdragon flowers; from tissue; host or cells: upper and lower petal lobes of 5- to 10-day-old snapdragon flowers
T1 sequence (Q9FYZ9 1-364): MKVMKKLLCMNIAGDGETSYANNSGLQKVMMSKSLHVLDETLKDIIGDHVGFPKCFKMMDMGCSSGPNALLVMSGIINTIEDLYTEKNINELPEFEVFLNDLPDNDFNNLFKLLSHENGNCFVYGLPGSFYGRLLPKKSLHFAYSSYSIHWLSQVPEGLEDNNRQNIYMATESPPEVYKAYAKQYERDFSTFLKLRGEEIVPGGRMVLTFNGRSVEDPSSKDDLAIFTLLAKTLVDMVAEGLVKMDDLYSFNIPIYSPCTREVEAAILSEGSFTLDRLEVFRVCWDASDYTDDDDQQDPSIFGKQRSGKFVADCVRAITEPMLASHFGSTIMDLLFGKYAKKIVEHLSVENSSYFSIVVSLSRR
Description: The raw data (counts per minute) were converted to picokatals (picomoles of product produced per second) based on the specific activity of the substrate and efficiency of counting. Controls included assays with boiled protein extracts and without substrate, and background radioactivity produced in such assays was subtracted from all of the results.
The enzyme activity was purified from upper and lower petal lobes of 5- to 10-day-old snapdragon flowers in a series of chromatographic steps involving a DEAE anion exchange column (DE53, Whatman International, Maidstone, England), phenyl Sepharose 6FF (low sub, level of phenyl substitution 20 μmole per ml gel) column (Pharmacia Biotech, Piscataway, N.J.), and another anion exchange column, MonoQ, on Pharmacia's fast-performance liquid chromatography system. A complete description of the purification protocol is described in Example 7.

BAMT [2] = assay: Effectors: BAMT enzyme assay with cations in assay buffer; assay type: biochemical, Antirrhinum majus; conditions: for Stimulation of BAMT activity (factor): cation at 5 mM in assay buffer
BAMT [3] = target: T1, BAMT; assay: BAMT activity with different substrates in lysates of E. coli expressing BAMT cDNA; assay type: biochemical; conditions: lysates of E. coli cells expressing BAMT
Description: The raw data (counts per minute) were converted to picokatals (picomoles of product produced per second) based on the specific activity of the substrate and efficiency of counting.
(Yamaguchi et al., 1996).

E. coli BAMT protein = target: T2, E. coli BAMT protein (Antirrhinum majus, UniProt Q9FYZ9); assay: Product inhibition kinetics of methylation reaction by SAH
T2 sequence (Q9FYZ9 1-364): T1 sequence (Q9FYZ9 1-364)
Description: Linear regressions were fitted to the data in double-reciprocal plots. Replots of the data were used to determine the kinetic parameters.

BAMT [4] = assay: Kinetic properties of purified plant and E. coli expressed BAMT proteins; assay type: biochemical, Antirrhinum majus; conditions: purified protein; for KmSAM: Table 4
BAMT [5] = target: T1, BAMT; assay: Specific activity of BAMT purified from snapdragon petals; assay type: biochemical; conditions: from 25 g fresh petal material after Mono-Q
Procedure: After the enzyme was loaded, the column was washed with 3 mL 300 mM KCl in buffer A and eluted with a linear reverse gradient (4 mL) from 300 mM KCl in buffer A to water followed by an additional 11 mL of water. Fractions of 0.7 ml were collected into tubes containing 100 μL 1 M KCl, 100 μL glycerol, 100 μL of 0.5 M Bis-Tris-HCl, pH 6.9 and 1 μL of 14 M β-mercaptoethanol. […] The column was previously equilibrate with 100 mM KCl in buffer A. After loading the protein onto the column, the column was washed with 100 mM KCl in buffer A and the bound protein was eluted using a 10 mL linear (100-400 mM) gradient of KCl in buffer A followed by an additional 5 mL of buffer A containing 400 mM KCl, at flow rate of 0.25 mL/min. The enzyme consistently eluted at about 360 mM KCl. Fractions (0.5 mL each) were collected and protein content and purity were examined by SDS-PAGE gel electrophoresis followed by staining of the gel with Coomassie Brilliant Blue. Fractions which had the largest amount of pure protein were used for N-terminal sequencing, internal peptide sequencing, and initial enzyme characterization.

BAMT [6] = system: BAMT
Procedure: The optimum pH for BAMT activity was determined using two buffer systems. Reactions were carried out in 50 mM Tris-HCl buffer with pH ranging from 6.5 to 9.0 and in 50 mM Tris/Na phosphate/Na citrate buffer with pH ranging from 4.0 to 9.5. Final results are an average of four independent assays.

[7] = target: the molecule itself; assay: gel filtration on Superdex 200-HR (100 kDa native) against SDS-PAGE (49 kDa subunit)
BAMT [8] = assay: Specific activity of plant BAMT expressed in E. coli BL21 (DE3) cells
Procedure: The E. coli.-expressed BAMT protein was purified by nickel-based affinity chromatography (2.5 ml bed volume) according to the manufacturer's protocol (Novagen, Inc).

BAMT [9] = conditions: read-out: Km of plant BAMT protein for benzoic acid; Murfitt, et al., 2000; cited from earlier work
SAMT = target: T3, SAMT (Clarkia breweri, UniProt Q9SPV4); conditions: Ross et al., 1999, cited from earlier work
T3 sequence (Q9SPV4 1-359): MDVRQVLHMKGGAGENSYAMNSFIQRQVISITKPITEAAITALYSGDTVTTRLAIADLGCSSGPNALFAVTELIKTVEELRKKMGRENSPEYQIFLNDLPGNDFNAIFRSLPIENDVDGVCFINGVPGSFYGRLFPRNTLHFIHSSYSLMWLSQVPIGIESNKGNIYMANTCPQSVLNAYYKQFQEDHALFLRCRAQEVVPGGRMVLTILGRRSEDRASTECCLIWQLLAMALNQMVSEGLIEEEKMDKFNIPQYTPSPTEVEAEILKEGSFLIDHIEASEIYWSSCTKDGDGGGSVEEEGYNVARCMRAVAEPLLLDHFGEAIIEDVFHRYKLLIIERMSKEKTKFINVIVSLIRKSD

[10] = read-out: KmBA (Km for benzoic acid)

## O=C(O)/C=C/c1ccc(O)cc1 [4-coumaric acid]
BAMT [1]
  BAMT activity with compound as substrate: no activity was detected

## [Mg+2] [Mg^2+]
BAMT [2]; 5 mM Mg2+ in the assay reaction
  Effect on BAMT activity: not affected

## O=C(O)c1ccc(O)cc1 [4-hydroxybenzoic acid]
BAMT [1]
  BAMT activity with compound as substrate: no activity was detected

## N [NH4^+]
BAMT [2]
  Stimulation of BAMT activity (factor): 2

## O=C(O)c1cccc(O)c1 [3-hydroxybenzoic acid]
BAMT [1]
  BAMT activity with compound as substrate: no activity was detected

## O=C(O)/C=C/c1ccccc1O [2-coumaric acid]
BAMT [1]
  BAMT activity with compound as substrate: no activity was detected

## [K+] [K^+]
BAMT [2]
  Stimulation of BAMT activity (factor): 2

## O=C(O)/C=C/c1ccccc1 [trans-cinnamic acid]
BAMT [1]
  BAMT activity with compound as substrate: no activity was detected
BAMT [3]
  BAMT activity with compound as substrate: no activity

## Nc1ncnc2c1ncn2[C@@H]1O[C@H](CSCC[C@H](N)C(=O)O)[C@@H](O)[C@H]1O [SAH, S-adenosyl-L- homocysteine]
E. coli BAMT protein; Ki value of SAH for BA, noncompetitive with respect to BA, SAM fixed at 150 μM
  Ki: 14 µM
E. coli BAMT protein; Ki value of SAH for SAM, competitive with respect to SAM, BA fixed at 4 mM
  Ki: 7 µM

## OCc1ccccc1 [benzyl alcohol]
BAMT [1]
  BAMT activity with compound as substrate: no activity was detected
BAMT [1]; listed as benzylalcohol
  BAMT activity with compound as substrate: no activity

## O=C(O)c1ccccc1O [salicylic acid]
BAMT [1]
  BAMT activity with compound as substrate: no activity was detected
BAMT [3]
  BAMT activity with compound as substrate: no activity

## S-adenosyl-L-methionine:benzoic acid carboxyl methyltransferase [BAMT]
BAMT [4]; read-out: Km for SAM
  Km: 28 µM
BAMT [4]; [10]
  Km: 1100 µM
BAMT [5]
  Specific activity of purified BAMT protein: 327 pkat/mg protein
BAMT [6]; at both pH 6.5 and 8.5
  Percent of maximum activity: 65%
BAMT [6]; at pH 5.5 and 9.5
  Enzyme activity as percent of the optimal value: about 50%

## O=C(O)/C=C/c1cccc(O)c1 [3-coumaric acid]
BAMT [1]
  BAMT activity with compound as substrate: no activity was detected

B1: S-adenosyl-L-methionine:benzoic acid carboxyl methyltransferase (BAMT) from snapdragon (Antirrhinum majus) petals (enzyme)
chain: T1 sequence (Q9FYZ9 1-364)
notes: Native protein from upper and lower petal lobes; The native enzyme is reported as a homodimer (100 kDa by gel filtration, 49 kDa on SDS-PAGE); In the immunoblots it was the denatured monomer after SDS-PAGE; also called BAMT protein; plant BAMT
[7]
  binding result: binds

B2: E. coli Met1: E. coli expressed snapdragon BAMT starting with the first methionine codon, N-terminal 6×His tag (protein, UniProt Q9FYZ9 1-364, looked up)
chain: T1 sequence (Q9FYZ9 1-364)
modifications: full-length N-terminal 6xHis tag
BAMT [4]
  Vmax: 300 pkat/mg
  kcat (turnover number of enzyme): 0.03 s⁻¹
  KmSAM: 87 μm
BAMT [4]; read-out: Km for SAM
  Km: 87 µM
BAMT [4]; [10]
  Km: 1500 µM
BAMT [8]; E. coli BL21 (DE3) after IPTG induction
  Specific activity, crude lysates: 9 pkat/mg protein
BAMT [8]; purified from E. coli
  Specific activity of purified recombinant enzyme: 135 pcat/mg protein
BAMT [8]; purified from E. coli on nickel column
  Specific activity, purified protein: 135 pkat/mg protein

B3: Plant: BAMT protein purified from upper and lower petal lobes of snapdragon flowers (protein)
chain: T1 sequence (Q9FYZ9 1-364)
BAMT [4]
  Vmax: 220 pkat/mg
  kcat (turnover number of enzyme): 0.02 s⁻¹
  KmSAM: 28 μm
BAMT [4]; read-out: Km for SAM
  Km: 28 µM
BAMT [4]; [10]
  Km: 1100 µM
BAMT [9]
  Km: 1000 µM

B4: SAM:salicylic acid carboxyl methyl transferase (protein, listed as Clarkia breweri)
chain: T3 sequence (Q9SPV4 1-359)
notes: salicylic acid carboxyl methyl transferase from C. breweri
SAMT; read-out: Km value for BA
  Km: 190 µM
SAMT; read-out: Km value for SA
  Km: 24 µM
SAMT; read-out: Km value for SAM
  Km: 9 µM
